In patent US7514534:

T1: MMP-26 (human)
T1 sequence: ASDF

B1: C08 (antibody, human IgG4, V domains shown)
VH: EVQLLESGGGLVQPGGSLRLSCAASGFTFSYYEMMWVRQAPGKGLEWVSSISPSGGPTMYADSVKGRFTISRDNSKNTLYLQMNSLRAEDTGVYYCARKMGRVGYCSSTSCYRDDYYGMDVWGQGTTVTVSS
VL: DIQMTQSPPSLSALVGDRVTITCRASQSISRYVNWYQQKPGKAPKVLIYAASIVENGVPSRFSGSGSGTDFSLTISSLQPEDFATYYCQQTYSTPLTFGGGTKLAIKR
B2: A04 (antibody, human IgG4, V domains shown)
VH: EVQLLESGGGLVQPGGSLRLSCAASGFTFSEYNMAWVRQAPGKGLEWVSRIGSSGGKTKYADSVKGRFTISRDNSKNTLYLQMNSLRAEDTAVYYCARDEAPDYGDDAEAFDIWGQGTMVTVSS
VL: QSALTQPPSASGTPGQRVTISCSGGYSNMGSNYAHWYQQVPGTAPKLLIYNNNQRPSGVPDRFSGSKSGTSASLAISGLRSEDEADYYCAAWDENLSGPVFGTGTKVTVLG
B3: C11 (antibody, human IgG4, V domains shown)
VH: EVQLLESGGGLVQPGGSLRLSCAASGFTFSEYPMWWVRQAPGKGLEWVSWIYPSGGNTDYADSVKGRFTISRDNSKNTLYLQMNSLRAEDTAVYYCAIPYCSSSSCPLHWGQGTLVTVSS
VL: QSELTQPPSASGSPGQSVTISCTGTSSDVGGYNYVSWYQQHPDKAPKLLIYEVTQRPSGVPDRFSGSRSGNTASLTVSGLQAEDEADYYCSSYAGRNNLYVFGPGTKVTVLG
B4: B10 (antibody, human IgG4, V domains shown)
VH: EVQLLESGGGLVQPGGSLRLSCAASGFTFSSYAMMWVRQAPGKGLEWVSWIVPSGGTTFYADSVKGRFTISRDNSKNTLYLQMNSLRAEDTAVYYCARGLYRWGQGTLVTVSSASTKGPSVFP
VL: DIQMTQSPSSLSASVGDRVTIACRTSQNVNRYLNWYQHKLGQAPKLLIYGATILQSGVPSRFRGSGSGTDFILTITNLQPEDFAVYYCQQTYSPPLTFGQGTKAEFKGTVAAPSV
B5: A1-orig (antibody, human IgG4, V domains shown)
VH: EVQLLESGGGLVQPGGSLRLSCAASGFTFSYYRMSWVRQAPGKGLEWVSSIGPSGGDTLYADSVKGRFTISRDNSKNTLYLQMNSLRAEDTAVYYCARSFSSGPYYFDYWGQGTLVTVSS
VL: QSVLTQPPSASGTPGQRVIISCSGSSSNIGSHYVHWYQQVPGTAPKLLIYRNGQRPSGVPDRFSGFKSGTSASLAISGLRSEDEANYYCATWDDSVLFGGGTTLTVLG
B6: B06 (antibody, human IgG4, V domains shown)
VH: EVQLLESGGGLVQPGGSLRLSCAASGFTFSQYFMKWVRQAPGKGLEWVSSISPSGGLTQYADSVKGRFTISRDNSKNTLYLQMNSLRAEDTAVYYCARGGIEAPGSPSDYWGQGTLVTVSS
VL: DIQMTQSPSFLSASVGDRVTITCRASQGISSYLAWYQQKPGKAPKLLIYAASTLQSGVPSRFSGSGSGTDFTLTISSLEPEDFATYYCQESYSTPFFTFGPGTKVDIRR
B7: C05 (antibody, human IgG4, V domains shown)
VH: EVQLLESGGGLVQPGGSLRLSCAASGFTFSSYQMDWVRQAPGKGLEWVSRIVPSGGDTTYADSVKGRFTISRDNSKNTLYLQMNSLRAEDTAVYYCARHVYYDSSDYFPNPFDYWGQGTLVTVSS
VL: QSELTQPPSVSGTPGQRVTISCSGSSSNIGSEYVYWFQQLPGTAPRLLIYRNDQRPSGVPDRFSGSKSGTSASLAISGLRSEDETDYYCTTWDDSLSGPVFGGGTKLTVLG
B8: B04 (antibody, human IgG4, V domains shown)
VH: EVQLLESGGGLVQPGGSLRLSCAASGFTFSFYWMMWVRQAPGKGLEWVSGISSSGGFTKYADSVKGRFTISRDNSKNTLYLQMNSLRAEDTAVYYCARETSRRAFDIWGQGTMVTVSS
VL: DIQMTQSPSSVSASVGDRVTITCRASQGISKSLAWYQQKPGKAPKLLVYGAFSLESGVPSRFSGTGAGTDFILTISRLQPEDFATYYCQQANSFPLTFGGGTKVEIKR
B9: C12 (antibody, V domains shown)
VH: EVQLLESGGGLVQPGGSLRLSCAASGFTFSAYNMMWVRQAPGKGLEWVSRIYPSGGYTLYADSVKGRFTISRDNSKNTLYLQMNSLRAEDTAVYYCARQKLMIRAVRPFDYWGQGTLVTVSS
VL: QSELTQPPSVSVSPAQTASITCSGDKLGDKYACWYQQKPGQSPVLVIYEDTKRPSGIPERFSGSNSGNTATLTISGTQVMDEADYYCQVWDSSTAVFGGGTKLTVLG
B10: C01 (antibody, human IgG4, V domains shown)
VH: EVQLLESGGGLVQPGGSLRLSCAASGFTFSNYGMSWVRQAPGKGLEWVSVIGPSGGITMYADSVKGRFTISRDNSKNTLYLQMNSLRAEDTAVYYCATGSSSGWYPNFDYWGQGTLVTVSS
VL: DIQMTQSPSTLSASVGDRVTITCRASQSIGNWLAWYQQKPGEAPHLLIYQASSLEGGVPSRFSGSGSGTKFTLNISSLQPDDFATYYCQQYNSYSYTFGQGTKLDIKR
B11: H6-orig (antibody, human IgG4, V domains shown)
VH: EVQLLESGGGLVQPGGSLRLSCAASGFTFSQYWMNWVRQAPGKGLEWVSGIGPSGGITYYADSVKGRFTISRDNSKNTLYLQMNSLRAEDTAVYYCARGEEDGYNSDYWGQGTLVTVSS
VL: QSELTQPPSASGSPGQSVTISCTGTSSDVGAYNYVSWYQQHPGKAPKLIIYEVNKRPSGVPDRFSASKSGNTASLTVSGLQAEDEADYYCNSYAGSNSLIFGGGTKLTVLG
B12: D6-orig (antibody, human IgG4, V domains shown)
VH: EVQLLESGGGLVQPGGSLRLSCAASGFTFSMYSMRWVRQAPGKGLEWVSSIYPSGGSTEYADSVKGRFTISRDNSKNTLYLQMNSLRAEDTAVYYCAREGGENDYWGQGTLVTVSS
VL: DIQMTQSPLSLSASVGDRVAITCRASQSIDTYLNWYQQKPGKAPKLLIYAASKLEDGVPSRFSGSGTGTDFTLTIRSLQPEDFASYFCQQSYSSPGITFGPGTKVEIKR
B13: C04 (antibody, human IgG4, V domains shown)
VH: EVQLLESGGGLVQPGGSLRLSCAASGFTFSMYFMVWVRQAPGKGLEWVSWIGSSGGETPYADSVKGRFTISRDNSKNTLYLQMNSLRAEDTAVYYCARGYSSGWYVMGDYWGQGTLVTVSS
VL: QSALTQPPSASGTPGQRVTISCSGTSSNIGSHYVFWYQQLPGTAPKLLIHRNDERPSGVPDRFSGSKSGTSASLAISGLQSEDEADYYCATWDDNLNGPVFGGGTKLT
B14: A01 (antibody, human IgG4, V domains shown)
VH: EVQLLESGGGLVQPGGSLRLSCAASGFTFSAYNMFWVRQAPGKGLEWVSGIGSSGGIAPYADSVKGRFTISRDNSKNTLYLQMNSLRAEDTAVYYCARAAYEVENWFDPWGQGTLVTVSS
VL: DIQMTQSPGTLSLSPGERATLSCRASQIVRSTYLAWYQQKPGQAPRLLIYGTSSRATGVPDRFSGSGSGTDFTLTISGLEPEDFALYYCQRYGDSPPITFGQGTRLEITR
B15: A11 (antibody, human IgG4, V domains shown)
VH: EVQLLESGGGLVQPGGSLRLSCAASGFTFSWYTMMWVRQAPGKGLEWVSRISPSGGHTLYADSVKGRFTISRDNSZNTLYLQMNSLRAEDTAVYYCARDTWDDYYDSSGYYNDFDYWGQGTLVTVSS
VL: QSALTQPPSVSLAPGQTARITCGGNNIGTKSVHWYQQKPGQAPVLVVYDDSDRPSGIPERFSGSNSGNTATLTISRVEAGDEADYYCQVWDSGSDHQVFGGGTKLTVLG

Each binder was assayed against T1, MMP-26 (human) (assay: cell-based or functional assay).
B1 showed a % Inhibition of JEG-3 cell invasion, 1 µg/ml (further test) of 34%, a % Inhibition of JEG-3 cell invasion, 5 µg/ml (first test) of 45% and a % Inhibition of JEG-3 cell invasion, 5 µg/ml (further test) of 42%. The % Inhibition of JEG-3 cell invasion, 25 µg/ml (first test) was 49%, the % Inhibition of JEG-3 cell invasion, 25 µg/ml (further test) was 49% and the % Inhibition of JEG-3 cell invasion, 50 µg/ml (further test) was 62%. B2 showed a % Inhibition of JEG-3 cell invasion, 5 µg/ml (first test) of 6% and a % Inhibition of JEG-3 cell invasion, 25 µg/ml (first test) of 27%. B3 gave a % Inhibition of JEG-3 cell invasion, 5 µg/ml (first test) of 28% and a % Inhibition of JEG-3 cell invasion, 25 µg/ml (first test) of 29%. With B4 the % Inhibition of JEG-3 cell invasion, 1 µg/ml (further test) was 6%, the % Inhibition of JEG-3 cell invasion, 5 µg/ml (first test) was 48% and the % Inhibition of JEG-3 cell invasion, 5 µg/ml (further test) was 5%. The % Inhibition of JEG-3 cell invasion, 25 µg/ml (first test) was 26%, the % Inhibition of JEG-3 cell invasion, 25 µg/ml (further test) was 11% and the % Inhibition of JEG-3 cell invasion, 50 µg/ml (further test) was 22%. Work on B5 yielded a % Inhibition of JEG-3 cell invasion, 1 µg/ml (further test) of 53%, a % Inhibition of JEG-3 cell invasion, 5 µg/ml (first test) of 40% and a % Inhibition of JEG-3 cell invasion, 5 µg/ml (further test) of 58%. The % Inhibition of JEG-3 cell invasion, 25 µg/ml (first test) was 66%, the % Inhibition of JEG-3 cell invasion, 25 µg/ml (further test) was 64% and the % Inhibition of JEG-3 cell invasion, 50 µg/ml (further test) was 74%. In the case of B6, the % Inhibition of JEG-3 cell invasion, 5 µg/ml (first test) is reported as 34% and the % Inhibition of JEG-3 cell invasion, 25 µg/ml (first test) is reported as 30%. Work on B7 yielded a % Inhibition of JEG-3 cell invasion, 5 µg/ml (first test) of 16% and a % Inhibition of JEG-3 cell invasion, 25 µg/ml (first test) of 32%. Binder B8 has a % Inhibition of JEG-3 cell invasion, 5 µg/ml (first test) of 36% and a % Inhibition of JEG-3 cell invasion, 25 µg/ml (first test) of 14%. With B9 the % Inhibition of JEG-3 cell invasion, 1 µg/ml (further test) was 36%, the % Inhibition of JEG-3 cell invasion, 5 µg/ml (first test) was 49% and the % Inhibition of JEG-3 cell invasion, 5 µg/ml (further test) was 35%. The % Inhibition of JEG-3 cell invasion, 25 µg/ml (first test) was 38%, the % Inhibition of JEG-3 cell invasion, 25 µg/ml (further test) was 49% and the % Inhibition of JEG-3 cell invasion, 50 µg/ml (further test) was 27%. In the case of B10, the % Inhibition of JEG-3 cell invasion, 1 µg/ml (further test) is reported as -2%, the % Inhibition of JEG-3 cell invasion, 5 µg/ml (first test) is reported as 43% and the % Inhibition of JEG-3 cell invasion, 5 µg/ml (further test) is reported as 16%. The % Inhibition of JEG-3 cell invasion, 25 µg/ml (first test) was 34%, the % Inhibition of JEG-3 cell invasion, 25 µg/ml (further test) was 21% and the % Inhibition of JEG-3 cell invasion, 50 µg/ml (further test) was 42%. In the case of B11, the % Inhibition of JEG-3 cell invasion, 1 µg/ml (further test) is reported as 49%, the % Inhibition of JEG-3 cell invasion, 5 µg/ml (first test) is reported as 24% and the % Inhibition of JEG-3 cell invasion, 5 µg/ml (further test) is reported as 52%. For the same binder, the % Inhibition of JEG-3 cell invasion, 25 µg/ml (first test) was 50%, the % Inhibition of JEG-3 cell invasion, 25 µg/ml (further test) was 57% and the % Inhibition of JEG-3 cell invasion, 50 µg/ml (further test) was 39%. In the case of B12, the % Inhibition of JEG-3 cell invasion, 1 µg/ml (further test) is reported as 42%, the % Inhibition of JEG-3 cell invasion, 5 µg/ml (first test) is reported as 41% and the % Inhibition of JEG-3 cell invasion, 5 µg/ml (further test) is reported as 55%. For the same binder, the % Inhibition of JEG-3 cell invasion, 25 µg/ml (first test) was 52%, the % Inhibition of JEG-3 cell invasion, 25 µg/ml (further test) was 70% and the % Inhibition of JEG-3 cell invasion, 50 µg/ml (further test) was 35%. B13 was tested, and the % Inhibition of JEG-3 cell invasion, 1 µg/ml (further test) was 1%, the % Inhibition of JEG-3 cell invasion, 5 µg/ml (first test) was 35% and the % Inhibition of JEG-3 cell invasion, 5 µg/ml (further test) was 11%. The % Inhibition of JEG-3 cell invasion, 25 µg/ml (first test) was 36%, the % Inhibition of JEG-3 cell invasion, 25 µg/ml (further test) was 18% and the % Inhibition of JEG-3 cell invasion, 50 µg/ml (further test) was 32%. In the case of B14, the % Inhibition of JEG-3 cell invasion, 1 µg/ml (further test) is reported as 30%, the % Inhibition of JEG-3 cell invasion, 5 µg/ml (first test) is reported as 19% and the % Inhibition of JEG-3 cell invasion, 5 µg/ml (further test) is reported as 47%. It also gave a % Inhibition of JEG-3 cell invasion, 25 µg/ml (first test) of 51%, a % Inhibition of JEG-3 cell invasion, 25 µg/ml (further test) of 54% and a % Inhibition of JEG-3 cell invasion, 50 µg/ml (further test) of 70%. B15 was tested, and the % Inhibition of JEG-3 cell invasion, 1 µg/ml (further test) was 51%, the % Inhibition of JEG-3 cell invasion, 5 µg/ml (first test) was 28% and the % Inhibition of JEG-3 cell invasion, 5 µg/ml (further test) was 54%. For the same binder, the % Inhibition of JEG-3 cell invasion, 25 µg/ml (first test) was 56%, the % Inhibition of JEG-3 cell invasion, 25 µg/ml (further test) was 59% and the % Inhibition of JEG-3 cell invasion, 50 µg/ml (further test) was 73%.
